Residue numbers refer to the chain shown, from its start.
How the values were obtained:
I-SceI = assay: cell_activity; settings: homologous recombination; about 2.5-fold fewer broken ends than wild-type core RAG
[1] = molecular target: T1, RAG-1/RAG-2 core, wild type (Mus musculus, UniProt P15919;P21784 P15919:330-1040,P21784:1-387); assay: cell_activity; settings: homologous recombination, extrachromosomal; cleavage seen by Southern blot (FIG. 3C)
T1 sequence 1: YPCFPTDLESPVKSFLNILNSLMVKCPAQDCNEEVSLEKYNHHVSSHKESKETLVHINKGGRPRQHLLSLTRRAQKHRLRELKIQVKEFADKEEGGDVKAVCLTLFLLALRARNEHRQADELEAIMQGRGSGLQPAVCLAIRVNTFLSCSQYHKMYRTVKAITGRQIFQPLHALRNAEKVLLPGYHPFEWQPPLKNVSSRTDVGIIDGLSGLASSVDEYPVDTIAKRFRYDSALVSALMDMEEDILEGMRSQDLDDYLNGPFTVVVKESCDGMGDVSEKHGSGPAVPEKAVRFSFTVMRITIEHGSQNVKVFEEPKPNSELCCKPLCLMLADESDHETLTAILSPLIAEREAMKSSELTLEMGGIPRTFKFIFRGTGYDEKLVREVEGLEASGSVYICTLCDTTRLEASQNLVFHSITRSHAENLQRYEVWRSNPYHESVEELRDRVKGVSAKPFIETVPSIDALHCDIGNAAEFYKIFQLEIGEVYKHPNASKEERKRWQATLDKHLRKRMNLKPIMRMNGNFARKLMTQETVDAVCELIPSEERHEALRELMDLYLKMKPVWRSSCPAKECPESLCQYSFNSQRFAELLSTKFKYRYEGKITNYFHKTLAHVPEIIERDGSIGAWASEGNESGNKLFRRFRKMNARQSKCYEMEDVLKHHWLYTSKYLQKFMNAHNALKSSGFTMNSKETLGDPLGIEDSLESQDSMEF
T1 sequence 2: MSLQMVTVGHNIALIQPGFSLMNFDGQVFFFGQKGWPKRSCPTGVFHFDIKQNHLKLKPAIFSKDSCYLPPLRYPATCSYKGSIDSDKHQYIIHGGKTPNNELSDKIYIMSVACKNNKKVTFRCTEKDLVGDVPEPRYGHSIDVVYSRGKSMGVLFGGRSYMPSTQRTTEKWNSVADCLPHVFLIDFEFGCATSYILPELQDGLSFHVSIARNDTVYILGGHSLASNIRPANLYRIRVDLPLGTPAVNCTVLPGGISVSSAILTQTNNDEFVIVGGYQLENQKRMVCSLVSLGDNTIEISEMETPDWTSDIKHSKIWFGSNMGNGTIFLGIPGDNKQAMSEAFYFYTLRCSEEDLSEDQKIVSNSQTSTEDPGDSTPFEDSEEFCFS

[2] = molecular target: T2, RAG-1 R838A/K839A/R840A core/RAG-2 core RAG-1 R838A/K839A/R840A (Mus musculus) (UniProt P15919+P21784); assay: cell_activity; settings: homologous recombination; signal ends 2.5-fold lower than wild type (FIG. 3C)
T2 sequence 1: T1 sequence 1 with R509A, K510A, R511A
T2 sequence 2: T1 sequence 2

RAG-1/RAG-2 full-length = RAG-1/RAG-2 full-length (UniProt P15919;P21784 P15919:1-1040,P21784:1-527); assay: cell_activity; homologous recombination, integrated single 12-RSS substrate; settings: chain copies: 2,2
Experimental: (§1) Relative stimulation is calculated by dividing the percentage of CFP-positive cells of experimental (nuclease-containing) transfections by the percentage of CFP-positive cells present in the DDE RAG mutant expressing transfection (negative control). It is important to maintain constant (DNA) in each transfection because increases in DNA (including non-substrate molecules) nonspecifically stimulate homologous recombination, as recently reported (Hostager et al., 2003). Experiments have been repeated over a dozen times on three different flow cytometers; FIGS. 3, 4, 6, and 7 show data from five experiments on the Becton Dickinson LSRII.
(§2) The next set of experiments took a complementary approach. Instead of using nick-only RAG proteins, a nick-only substrate was used (i.e., a single 12-RSS, which readily undergoes nicking in vitro (Cuomo et al., 1996; Ramsden et al., 1996) but yields very poor DSB formation in vivo (Steen et al., 1997)). […] Even when the nick-only mutants are assayed on the single RSS substrate, they are able to stimulate homologous recombination as efficiently as the full-length or core wild-type RAG proteins (FIG. 7). […]

[3] = molecular target: T1, RAG-1/RAG-2 core, wild type; assay: cell_activity; homologous recombination, integrated single 12-RSS substrate; robust also for full-length RAG; settings: tags: GST-RAG-1 core (pEBG-1DN) and RAG-2 core (pMal-1 vector); chain copies: 2,2
Experimental: as §1, §2

I-SceI site substrate
activity (fold over wild-type core RAG) (I-SceI): 9

SE substrate (pJH289 recombination zone, 12/23 RSS pair)
activity (fold over DDE) [1]: 13 | activity (fold over DDE) [2]: 205

B1: 12-RSS substrate (dsDNA)
DNA 1: CACAGTGCTACAGACTGGAACAAAAACC
DNA 2: GGTTTTTGTTCCAGTCTGTAGCACTGTG
activity (RAG-1/RAG-2 full-length): 15 fold over DDE | activity [3]: 15 fold over DDE

— US20050069921, “Compositions, kits, and methods for stimulation of homologous recombination” (published 2005)
